Values quoted from earlier work, collected in paper PMC8622359.
Read-outs that look alike come from different tables or passages of the source. Values belong to the substance of their own block, whether it stands above or below them.

Legend:
[1] = target: AtRAD4 (Arabidopsis thaliana)
[2] = target: AtRAD4 (Arabidopsis thaliana); remark: listed apart in the source
[3] = target: SAC3B (Arabidopsis thaliana) (UniProt F4JAU2); assay: given as Ka
[4] = target: SAC3B (Arabidopsis thaliana) (UniProt F4JAU2); assay: given as Ka; remark: listed apart in the source
[5] = target: HsSFI1 (R18) (Homo sapiens); assay: given as Ka
Chain of HsSFI1 (R18) (Homo sapiens) (A8K8P3 670-692): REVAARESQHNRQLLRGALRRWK

[6] = target: Transducin β (Homo sapiens) (UniProt P62873); assay: given as Ka
[7] = target: HsSFI1 (R18) (Homo sapiens); assay: given as Ka; remark: listed apart in the source
[8] = target: HsSFI1 (R17) (Homo sapiens); assay: given as Ka
Chain of HsSFI1 (R17) (Homo sapiens) (A8K8P3 641-660): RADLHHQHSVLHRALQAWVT

XPC (Homo sapiens) [9] = assay: given as Ka
[10] = target: HsSFI1 (R17) (Homo sapiens); assay: given as Ka; remark: listed apart in the source
XPC (Homo sapiens) [11] = assay: given as Ka; remark: listed apart in the source
PRP40A (Homo sapiens) = PRP40A (Homo sapiens) (UniProt O75400); assay: given as Ka
Chain of PRP40A (Homo sapiens) (O75400 524-556): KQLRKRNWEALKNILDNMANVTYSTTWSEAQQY

[12] = target: KAR1 (Saccharomyces cerevisiae) (UniProt P11927); assay: given as Ka
[13] = target: SAC3 (Saccharomyces cerevisiae) (UniProt P46674)
[14] = target: SAC3 (Saccharomyces cerevisiae) (UniProt P46674); remark: listed apart in the source
[15] = target: ScSFI1 (R19) (Saccharomyces cerevisiae); assay: given as Ka
Chain of ScSFI1 (R19) (Saccharomyces cerevisiae) (Q12369 710-729): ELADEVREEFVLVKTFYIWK

[16] = target: ScSFI1 (R18) (Saccharomyces cerevisiae); assay: given as Ka
Chain of ScSFI1 (R18) (Saccharomyces cerevisiae) (Q12369 680-699): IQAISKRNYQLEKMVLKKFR

[17] = target: SAC3 (Saccharomyces cerevisiae); assay: given as Ka
[18] = target: SAC3 (Saccharomyces cerevisiae) (UniProt P46674); assay: given as Ka
[19] = target: KAR1 (Saccharomyces cerevisiae) (UniProt P11927); assay: given as Ka; remark: listed apart in the source
[20] = target: ScSFI1 (R18) (Saccharomyces cerevisiae); assay: given as Ka; remark: listed apart in the source
[21] = target: ScSFI1 (R19) (Saccharomyces cerevisiae); assay: given as Ka; remark: listed apart in the source

Chain of CDC31 (P06704 whole entry): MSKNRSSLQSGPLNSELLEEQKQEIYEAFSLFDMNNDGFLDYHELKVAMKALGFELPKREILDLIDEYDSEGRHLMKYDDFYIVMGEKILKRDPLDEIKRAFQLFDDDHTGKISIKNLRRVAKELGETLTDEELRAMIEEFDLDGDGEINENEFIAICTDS
Chain of HsCEN1 (Q12798 whole entry): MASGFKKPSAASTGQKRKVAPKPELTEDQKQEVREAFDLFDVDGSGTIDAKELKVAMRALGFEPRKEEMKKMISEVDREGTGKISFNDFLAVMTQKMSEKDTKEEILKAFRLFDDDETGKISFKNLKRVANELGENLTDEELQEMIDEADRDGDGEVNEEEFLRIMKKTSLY
Chain of AtCEN2 (O23184 whole entry): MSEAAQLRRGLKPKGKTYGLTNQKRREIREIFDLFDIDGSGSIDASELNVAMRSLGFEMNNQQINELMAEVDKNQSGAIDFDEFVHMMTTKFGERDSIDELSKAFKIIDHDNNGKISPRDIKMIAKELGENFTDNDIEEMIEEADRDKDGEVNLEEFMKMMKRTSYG
Chain of HsCEN2 (P41208 2-172): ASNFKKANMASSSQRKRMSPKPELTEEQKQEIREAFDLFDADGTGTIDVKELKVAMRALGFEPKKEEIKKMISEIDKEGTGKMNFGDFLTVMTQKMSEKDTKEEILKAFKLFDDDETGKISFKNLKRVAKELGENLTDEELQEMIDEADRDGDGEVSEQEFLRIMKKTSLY
Chain of SAC3B (Arabidopsis thaliana) (F4JAU2 1050-1075): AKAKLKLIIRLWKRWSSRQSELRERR

Kd [1]: 54 nM
Kd [2]: 8000 nM
Kd [3]: 2440 nM
Kd [4]: 667 nM
Substance: AtCEN2 (from UniProt O23184)

Kd [5]: 333000 nM
Kd [6]: 5880 nM
Kd [7]: 831 nM
Substance: HsCEN1 (from UniProt Q12798)

Kd [8]: 4000 nM
Kd (XPC (Homo sapiens) [9]): 125 nM
Kd [10]: 154 nM
Kd (XPC (Homo sapiens) [11]): 5.88 nM
Kd (PRP40A (Homo sapiens)): 278 nM
Substance: HsCEN2 (from UniProt P41208)

Kd [12]: 2270 nM
Kd [13]: 677 nM
Kd [14]: 45 nM
Kd [15]: 28.6 nM
Kd [16]: 4170 nM
Kd [17]: 45.5 nM
Kd [18]: 667 nM
Kd [19]: 43.5 nM
Kd [20]: 100 nM
Kd [21]: 5260 nM
Substance: CDC31 (from UniProt P06704)
